In paper PMC2120794 one finds stoichiometry N data, which are given here for 1 molecule.

By stoichiometry N is commonly meant the number of molecules, sites or subunits per partner or assembly.

The assay has as its target type I collagen (triple helix). The assay is described as follows: SPR. The note with it: scale: molecules of HSP47 per triple helix of type I collagen.

B1: recombinant mouse HSP47 (natural protein)
chain: AEVKKPLEAAAPGTAEKLSSKATTLAERSTGLAFSLYQAMAKDQAVENILLSPLVVASSLGLVSLGGKATTASQAKAVLSAEKLRDEEVHTGLGELLRSLSNSTARNVTWKLGSRLYGPSSVSFADDFVRSSKQHYNCEHSKINFRDKRSALQSINEWASQTTDGKLPEVTKDVERTDGALLVNAMFFKPHWDEKFHHKMVDNRGFMVTRSYTVGVTMMHRTGLYNYYDDEKEKLQMVEMPLAHKLSSLIILMPHHVEPLERLEKLLTKEQLKAWMGKMQKKAVAISLPKGVVEVTHDLQKHLAGLGLTEAIDKNKADLSRMSGKKDLYLASVFHATAFEWDTEGNPFDQDIYGREELRSPKLFYADHPFIFLVRDNQSGSLLFIGRLVRPKGDKMRDEL
As to B1, the stoichiometry N is above 7.
